Entries after “also recorded” stand apart in the source; their conditions may differ.
Key:
[1] = test system: AtPRK6^LRR; test: In vitro pull-down with AtPRK6^LRR; format: binding, Arabidopsis thaliana; settings: Ni-NTA, excess AtLURE1.2, on ice 30 min, washed five times, 25 mM Tris pH 8.0, 150 mM NaCl; SDS-PAGE, Coomassie blue; repeated at least three times
From the text: (§1) The genes of AtPRK3 ^LRR (residues 1–241), AtPRK4 ^LRR (residues 1–277), AtPRK5 ^LRR (residues 1–279), AtPRK6 ^LRR (residues 1–262), MIK1 ^LRR (residues 1–633), MIK2 ^LRR (residues 1–707) were amplified from Arabidopsis cDNA library by PCR and cloned into pFastBac-1 vector with a C-terminal 6 × His-tag. Their identities were confirmed by sequencing. The mature form of AtLURE1.1 (residues 20–94), AtLURE1.2 (residues 20–90), AtLURE1.3 (residues 21–91), and AtLURE1.4 (residues 20–90) were cloned into pFastBac-1 vector, with a modified N-terminal hemolin signal peptide and 6 × His-SUMO tag. Point mutation constructs were generated by QuickChange Site-Directed Mutagenesis Kit (Strategene). All the proteins were expressed using the Bac-to-Bac baculovirus expression system (Invitrogen) in High Five cells at 22 °C. One liter of High Five cells (2.0 × 10^6 cells mL^−1) cultured in the medium from Expression Systems was infected with 25 ml recombinant baculovirus and the media was collected after 72 h of infection. Secreted LRR proteins were purified using Ni-NTA (Novagen) and size-exclusion chromatography (Hiload 200, GE Healthcare) in buffer containing 10 mM Bis-Tris pH 6.0 and 100 mM NaCl. The His-SUMO tag of the AtLURE proteins was removed by Prescission Protease at 4 °C overnight in buffer containing 25 mM Tris pH 8.0 and 150 mM NaCl. All AtLURE proteins were further cleaned by size-exclusion chromatography (Hiload 200, GE Healthcare). For co-expression of AtPRK6^LRR and AtLURE1, one liter of High Five cells were co-infected with 20 and 30 ml recombinant baculovirus of AtPRK6^LRR and AtLURE1, respectively. Secreted AtPRK6^LRR-AtLURE1 complexes were processed with Prescission Protease digestion and then purified as described above. Expression and purification procedures of all the mutants were essentially the same as those of AtPRK6^LRR and AtLURE1.2.
(§2) The purified His-tagged ectodomains of AtPRK proteins and MIK1, 2 were used to pull-down the AtLURE1.2 peptide. […] All the eluted samples were analyzed by SDS-PAGE and visualized by Coomassie blue staining. […]

[2] = test system: prk6 pollen tubes transformed with PRK6 D234A; test: Wavy assay, prk6 pollen tubes transformed with D234A PRK6; format: cell-based, Arabidopsis; settings: 250 nM wild-type AtLURE1.2 in medium
Protocol: (§3) Attraction activities of mutant AtLURE1.2 peptides were examined for semi-in-vivo pollen tubes growing through cut, pollinated pistils by gelatin-beads assay and wavy assay, [20]. For the gelatin-beads assay, pollen tubes were grown on solid pollen germination medium poured into a mold made with 1-mm thick silicone rubber and cover glasses. After hand-pollination, the topside cover glass was removed and the medium was covered with hydrated silicone oil (KF-96–100CS; Shin-Etsu). Attraction of pollen tubes toward the peptide was evaluated using AtLURE1 peptide containing gelatine beads under an inverted microscope (IX71, Olympus) equipped with a micro-manipulator (Narishige). For the AtLURE1-responsive wavy assay, the purified AtLURE1.2 peptide was added to solid pollen germination medium, which was melted at 70 °C and then cooled to a certain degree. The mixture was mixed by vortexing and poured into the mold. Pollen tubes of each genotype were grown through cut styles, as mentioned above. Each peptide (25 μM in 10 mM Bis-Tris (pH 6.0) and 100 mM NaCl) was diluted to 250 nM by cultivation medium in both assays. […]
pollen tubes. Fluorescence is from mRuby2 fused to the C-terminal of PRK6 receptors, showing that all of mutant PRK6 receptors localize normally to the plasma membrane of the pollen tube tip. […]

[3] = test system: AtPRK6^LRR; test: Gel filtration assay with AtPRK6^LRR; format: binding, Arabidopsis thaliana
From the text: as §1, with “All AtLURE proteins were further cleaned by size-exclusion chromatography (Hiload 200, GE Healthcare). For co-expression of AtPRK6^LRR and AtLURE1, one liter of High Five cells were co-infected with 20 and 30 ml recombinant baculovirus of AtPRK6^LRR and AtLURE1, respectively. Secreted AtPRK6^LRR-AtLURE1 complexes were processed with Prescission Protease digestion and then purified as described above. Expression and purification procedures of all the mutants were essentially the same as those of AtPRK6^LRR and AtLURE1.2.” left out

[4] = test system: MIK1^LRR; test: Gel filtration assay with MIK1^LRR; format: binding, Arabidopsis; settings: 4 °C 30 min, 10 mM Bis-Tris pH 6.0, 100 mM NaCl
From the text: as §1, with “All AtLURE proteins were further cleaned by size-exclusion chromatography (Hiload 200, GE Healthcare). For co-expression of AtPRK6^LRR and AtLURE1, one liter of High Five cells were co-infected with 20 and 30 ml recombinant baculovirus of AtPRK6^LRR and AtLURE1, respectively. Secreted AtPRK6^LRR-AtLURE1 complexes were processed with Prescission Protease digestion and then purified as described above. Expression and purification procedures of all the mutants were essentially the same as those of AtPRK6^LRR and AtLURE1.2.” left out

[5] = test system: prk6 pollen tubes transformed with PRK6 D234A; test: Gelatin-beads assay, prk6 pollen tubes transformed with D234A PRK6; format: cell-based, Arabidopsis; settings: beads with 250 nM wild-type AtLURE1.2; 10–23 pollen tubes per assay, three assays
Protocol: as §3, with “assays. To examine reactivity of PRK6 mutants to AtLURE1.2, constructs for PRK6 mutants, D234A, N239A, and ΔN239I240, were generated by site-directed mutagenesis from a wild-type PRK6 vector, pPZP221-pPRK6::PRK6-mRuby2 (ref. [20]).” for “assays.”

[6] = test system: AtPRK^LRR proteins other than AtPRK6^LRR; test: In vitro pull-down with other AtPRK^LRR proteins; format: binding, Arabidopsis; settings: Ni-NTA, excess AtLURE1.2, on ice 30 min, washed five times; SDS-PAGE, Coomassie blue
From the text: as §1, with “The His-SUMO tag of the AtLURE proteins was removed by Prescission Protease at 4 °C overnight in buffer containing 25 mM Tris pH 8.0 and 150 mM NaCl. All AtLURE proteins were further cleaned by size-exclusion chromatography (Hiload 200, GE Healthcare). For co-expression of AtPRK6^LRR and AtLURE1, one liter of High Five cells were co-infected with 20 and 30 ml recombinant baculovirus of AtPRK6^LRR and AtLURE1, respectively. Secreted AtPRK6^LRR-AtLURE1 complexes were processed with Prescission Protease digestion and then purified as described above. Expression and purification procedures of all the mutants were essentially the same as those of AtPRK6^LRR and AtLURE1.2.” left out
as §2

B1: AtLURE1.2: mature form of AtLURE1.2 (residues 20–90), defensin-like cysteine-rich peptide expressed in insect cells (protein)
chain: TLINGSSDEERTYSFSPTTSPFDPRSLNQELKIGRIGYCFDCARACMRRGKYIRTCSFERKLCRCSISDIK
modifications: left off: His6, N-terminal, cleaved | SUMO, N-terminal, cleaved
notes: mature form of AtLURE1.2 (residues 20–90), defensin-like cysteine-rich peptide expressed in insect cells
interaction in pull-down assay [1]: strongly interacted | wavy and branched pollen tube behavior [2]: branched behavior is not observed; also recorded: greatly compromised | effect on monomeric state of AtPRK6^LRR in solution ([3]; gel filtration): did not alter the monomeric status; also recorded: does not alter the monomeric state | complex formation in gel filtration ([3]; purified proteins mixed at molar ratio about 1:3, 4 °C 30 min, 10 mM Bis-Tris pH 6.0, 100 mM NaCl): formed a stable complex | interaction in gel filtration [4]: no interaction; also recorded: none of the purified AtPRK3^LRR, MIK1^LRR or MIK2^LRR proteins showed detectable interaction | pollen tube attraction [5]: significantly lower than those in wild-type and N239A PRK6 pollen tubes; also recorded: significantly reduced | interaction in pull-down assay [6]: none of the other LRR proteins was found to interact
